Laboratory results taken from US20220204627A1 (WILLIAM ROBERT ARATHOON LIVING TRUST DATED AUGUST 29 2016, published 2022).
Blank lines part the entries; values can stand above or below the binder they belong to.

How the values were obtained:
[1] = molecular target: T1, cynomolgus CD47 on erythrocytes (cynomolgus, UniProt A0A5F8AK49 19-323 (rhesus entry)); assay: flow cytometry on cynomolgus red blood cells (cy807 RBC), Alexa Fluor 647 channel
T1 construct: whole, on cells; also called cynomolgus RBCs

[2] = molecular target: T2, human CD47-Fc fusion protein (R&D systems) (human, UniProt Q08722 19-141); assay: ELISA, plate coated with human CD47-Fc; parameters: Bmax: unit not given here
T2 construct: Bought (R&D systems); also called Fc-tagged CD47; not shown: Fc part of the bought fusion protein

human CD47 on cells [3] = molecular target: T3, human CD47 on cells (human, UniProt Q08722 19-323); assay: flow cytometry on human red blood cells (h408 RBC), Alexa Fluor 647 channel
T3 construct: also called KT14 (target name); leukocyte surface antigen CD47

human CD47 on cells [4] = molecular target: T3, human CD47 on cells; assay: flow cytometry on 293T_ABCB1_OX cells (anti-CD47 antibody; CD47 is endogenous on 293T cells); 293T_ABCB1_OX cells, endogenous CD47
[5] = molecular target: T4, human P Glycoprotein (Pgp) / Multidrug resistance protein 1 (MDR1), gene ABCB1, on cells (human, UniProt P08183 1-1280); assay: cell-based or functional assay
[6] = molecular target: T4, human P Glycoprotein (Pgp) / Multidrug …; assay: FACS on 293T-B1OX cells (overexpressing MDR1)
[7] = molecular target: T2, human CD47-Fc fusion protein (R&D …); assay: ELISA, binding to CD47; 15D3 HC with its own 15D3 LC (un-swapped control); ELISA
[8] = molecular target: T4, human P Glycoprotein (Pgp) / Multidrug …; assay: flow cytometry on 293T cells stably expressing human ABCB1 (293T_ABCB1_OX)
[9] = molecular target: T2, human CD47-Fc fusion protein (R&D …); assay: ELISA, binding to CD47; parameters: Bmax: unit not given here
[10] = molecular target: T5, EGFR on 293T cells overexpressing EGFR (UniProt P00533 25-1210, limits assumed); assay: FACS on 293T-EGFR OX cells
T5 construct: whole, on cells

[11] = molecular target: T5, EGFR on 293T cells overexpressing EGFR; assay: FACS on 293T cells overexpressing EGFR

R4 (percent of red blood cells in the positive gate R4) [1]: 99.8%
Bmax [2]: 2.78
Kd [2]: 1.97 pM
R4 (percent of red blood cells in the positive gate R4) (human CD47 on cells [3]): 99.9%
EC50 (human CD47 on cells [4]): 300 pM
B1: anti-CD47 antibody 5F9 (antibody, human IgG1, V domains shown)
VH: QVQLVQSGAEVKKPGASVKVSCKASGYTFTNYNMHWVRQAPGQRLEWMGTIYPGNDDTSYNQKFKDRVTITADTSASTAYMELSSLRSEDTAVYYCARGGYRAMDYWGQGTLVTVSS
VL: DIVMTQSPLSLPVTPGEPASISCRSSQSIVYSNGNTYLGWYLQKPGQSPQLLIYKVSNRFSGVPDRFSGSGSGTDFTLKISRVEADVGVYYCFQGSHVPYTFGQGTKLEIK
notes: Variable regions cloned on human IgG1 / human kappa constant regions; also called 5F9/5F9; KT14

Vincristine IC50 (nM) on N6/ADR cells with antibody at 50 ug/mL [5]: 0.466 nM
EC50 [6]: 25100 pM
Kd [7]: 10900 pM
EC50 [8]: 14600 pM
Bmax [9]: 3.2
B2: anti-MDR1 antibody 15D3 (recombinant, human IgG1/Kappa) (antibody, V domains shown)
VH: EVKVVESGGVLVRPGGSLKLSCAASGFTFSRYTMSWVRQTPEKRLEWVATISSGGGNTYYPDSVKGRFTVSRDNAMSSLYLQMSSLRSEDTALYYCARYGAGDAWFAYWGQGTLVTVSA
VL: DVLMTQTPLSLPVSLGDQASISCRSSQSIVHSTGNTYLEWYLQKPGQSPKLLIYKVSNRFSGVPDRFSGSGSGTDFTLKISRLEAEDLGVYYCFQGSHFPRTFGGGTRLEIK
notes: also called 15D3/15D3

EC50 [10]: 130 pM
EC50 [11]: 44 pM
B3: anti-EGFR antibody necitumumab (antibody, human IgG1, kappa, V domains shown)
VH: QVQLQESGPGLVKPSQTLSLICTVSGGSISSGDYYWSWIRQPPGKGLEWIGYIYYSGSTDYNPSLKSRVTMSVDTSKNQFSLKVNSVTAADTAVYYCARVSIFGVGTFDYWGQGTLVTVSS
VL: EIVMTQSPATLSLSPGERATLSCRASQSVSSYLAWYQQKPGQAPRLLIYDASNRATGIPARFSGSGSGTDFTLTISSLEPEDFAVYYCHQYGSTPLTFGGGTKAEIKR
notes: Heavy chain copied as printed in T0103; also called KT3-2
